In patent US20220332804A1 (CSL INNOVATION, published 2022):
Residue numbers refer to the chain shown, from its start.

Legend:
Assay in all cases: SPR, antibody captured, C2 as analyte;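 further: biacore SPR at 37 °C, anti-C2 mAbs captured via goat anti-human IgG on CM5 chips, double-referenced sensorgrams fit to a 1:1 kinetic or steady-state model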
human C2 N325A = target: T1, human C2 N325A (human, UniProt P06681 21-752)
T1 sequence: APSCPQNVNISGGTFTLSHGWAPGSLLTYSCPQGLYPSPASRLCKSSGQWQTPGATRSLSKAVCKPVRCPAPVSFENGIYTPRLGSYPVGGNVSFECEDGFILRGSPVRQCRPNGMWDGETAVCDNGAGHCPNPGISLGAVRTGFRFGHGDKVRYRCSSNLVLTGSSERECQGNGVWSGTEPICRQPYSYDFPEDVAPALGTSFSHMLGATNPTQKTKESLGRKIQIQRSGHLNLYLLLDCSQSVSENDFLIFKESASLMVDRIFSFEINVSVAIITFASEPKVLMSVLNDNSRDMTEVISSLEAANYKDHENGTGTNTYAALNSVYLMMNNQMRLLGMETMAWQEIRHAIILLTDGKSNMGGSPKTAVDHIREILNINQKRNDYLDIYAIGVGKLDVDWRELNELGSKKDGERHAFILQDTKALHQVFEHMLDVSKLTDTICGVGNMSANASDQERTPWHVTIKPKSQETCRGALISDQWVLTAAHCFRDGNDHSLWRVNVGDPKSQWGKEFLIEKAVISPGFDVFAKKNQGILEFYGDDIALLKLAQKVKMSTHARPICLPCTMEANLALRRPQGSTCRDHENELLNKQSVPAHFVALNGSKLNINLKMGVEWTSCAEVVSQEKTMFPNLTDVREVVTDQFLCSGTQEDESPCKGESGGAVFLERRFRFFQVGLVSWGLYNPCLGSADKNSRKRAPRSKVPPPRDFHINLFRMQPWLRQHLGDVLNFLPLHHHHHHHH

human C2 W420A = target: T2, human C2 W420A (human, UniProt P06681 21-752)
T2 sequence: T1 sequence with A305N, W400A

human C2 N424A = target: T3, human C2 N424A (human, UniProt P06681 21-752)
T3 sequence: T1 sequence with A305N, N404A

human C2 K550A = target: T4, human C2 K550A (human, UniProt P06681 21-752)
T4 sequence: T1 sequence with A305N, K530A

B1: RF16-226 (antibody, human IgG4 S228P, lambda)
heavy: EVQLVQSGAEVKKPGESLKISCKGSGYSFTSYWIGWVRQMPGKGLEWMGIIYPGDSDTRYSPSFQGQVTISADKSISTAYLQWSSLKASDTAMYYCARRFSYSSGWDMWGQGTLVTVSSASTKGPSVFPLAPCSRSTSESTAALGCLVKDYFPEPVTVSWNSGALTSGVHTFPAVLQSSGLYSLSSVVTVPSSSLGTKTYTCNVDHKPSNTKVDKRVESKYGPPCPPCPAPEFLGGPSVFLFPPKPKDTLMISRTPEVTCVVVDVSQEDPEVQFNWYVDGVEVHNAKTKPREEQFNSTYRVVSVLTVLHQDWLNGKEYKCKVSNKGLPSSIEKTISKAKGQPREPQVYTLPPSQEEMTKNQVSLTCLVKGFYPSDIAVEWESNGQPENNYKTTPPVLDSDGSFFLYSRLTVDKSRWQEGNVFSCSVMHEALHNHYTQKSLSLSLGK
light: SYELTQPPSVSVSPGQTARITCSGDALTSKYVAWYQQKSGLAPLLVIYEDTRRPSGIPAKFSGSSSGSVATLTISGAHGDDEADYYCYSTDASGHQRVFGGGTKLTVLSQPKAAPSVTLFPPSSEELQANKATLVCLISDFYPGAVTVAWKADGSPVKAGVETTKPSKQSNNKYAASSYLSLTPEQWKSHRSYSCQVTHEGSTVEKTVAPTECS
notes: pH-dependent anti-C2 antibody from a phage display library; also called WT
Kd (human C2 N325A): 51.3 nM
Kd (human C2 W420A): 15.6 nM
Kd (human C2 N424A): 3.2 nM
Kd (human C2 K550A): 15 nM
